The results in this text go back to PMC4436832 (Molecular Biology of the Cell, 2015).

B1: Wild-type CapuCT (C-terminal Capu construct, residues 467–1059) (domain or fragment)
chain: VSDNESAKEDGEKPHAVAPPPPPPPPPLHAFVAPPPPPPPPPPPPPPLANYGAPPPPPPPPPGSGSAPPPPPPAPIEGGGGIPPPPPPMSASPSKTTISPAPLPDPAEGNWFHRTNTMRKSAVNPPKPMRPLYWTRIVTSAPPAPRPPSVANSTDSTENSGSSPDEPPAANGADAPPTAPPATKEIWTEIEETPLDNIDEFTELFSRQAIAPVSKPKELKVKRAKSIKVLDPERSRNVGIIWRSLHVPSSEIEHAIYHIDTSVVSLEALQHMSNIQATEDELQRIKEAAGGDIPLDHPEQFLLDISLISMASERISCIVFQAEFEESVTLLFRKLETVSQLSQQLIESEDLKLVFSIILTLGNYMNGGNRQRGQADGFNLDILGKLKDVKSKESHTTLLHFIVRTYIAQRRKEGVHPLEIRLPIPEPADVERAAQMDFEEVQQQIFDLNKKFLGCKRTTAKVLAASRPEIMEPFKSKMEEFVEGADKSMAKLHQSLDECRDLFLETMRFYHFSPKACTLTLAQCTPDQFFEYWTNFTNDFKDIWKKEITSLLNELMKKSKQAQIESRRNVSTKVEKSGRISLKERMLMRRSKN
B2: CapuCT-I751T (domain or fragment)
chain: B1 chain with I285T
B3: CapuCT-P597L (domain or fragment)
chain: B1 chain with P131L
B4: CapuCT-H977Y (domain or fragment)
chain: B1 chain with H511Y
B5: CapuCT-D662N (domain or fragment)
chain: B1 chain with D196N
B6: CapuCT-K586M (domain or fragment)
chain: B1 chain with K120M
B7: CapuCT-D854N (domain or fragment)
chain: B1 chain with D388N

Changes are numbered by the printed parent chain. Names may count otherwise.

One series has as its target Acanthamoeba castellani actin (filaments) (Acanthamoeba castellani).
Test: not given
Usually koff stands for the first-order rate constant of dissociation. A lower koff goes with a long-lived complex. In the case of B1, the koff is 0.000245 s⁻¹.
In turn, B2 returned a koff of 0.00277 s⁻¹.
Turning to B3, the koff is 0.0021 s⁻¹.
Still for that read-out and setting: as for B4, the figure is 0.0013 s⁻¹; as for B5, 0.000297 s⁻¹.
B6 registered a koff of 0.000852 s⁻¹.
For B7, the koff was found to be 0.000592 s⁻¹.

Another series deals with the molecule itself. In words: SEC. In general terms: In gel filtration, larger molecules generally elute earlier.
Usually stoichiometry N stands for a count of units in the complex or per binding partner. On to B1, for which the “stoichiometry N” value turned out to be 2.
Regarding B3, the “stoichiometry N” value is 2.
Turning to B4, the “stoichiometry N” value was found to be 2.
As for B5, the “stoichiometry N” value came to 2.
Regarding B6, the “stoichiometry N” value worked out at 2.
On to B7, for which the “stoichiometry N” value is 2.

The target of another series is Taxol-stabilized microtubules (tubulin, Cytoskeleton T240) (UniProt P02550). Briefly: co-sedimentation.
As a reminder, the Kd is a measure of binding affinity in units of concentration. A low value points to a tighter complex. Regarding B1, the Kd stood at 150 nM and the stoichiometry N (α/β dimers per binding site) is 1.42.
In turn, B3 had a Kd of 300 nM and a stoichiometry N (α/β dimers per binding site) of 0.88.
B4: the Kd amounted to 180 nM and the stoichiometry N (α/β dimers per binding site) was 0.95.
On to B5, for which the Kd worked out at 250 nM and the stoichiometry N (α/β dimers per binding site) is 0.87.
The corresponding values for B6 are 250 nM and 0.88.
The corresponding values for B7 are 100 nM and 1.48.
